Assay results: US20180326059A1 (GANYMED PHARMACEUTICALS, published 2018)

Target: Claudin 18 splice variant 2 (CLDN18.2), human (human)
Assay: cell-based or functional assay

B1: IMAB362 (antibody, V domains shown)
VH: QVQLQQPGAELVRPGASVKLSCKASGYTFTSYWINWVKQRPGQGLEWIGNIYPSDSYTNYNQKFKDKATLTVDKSSSTAYMQLSSPTSEDSAVYYCTRSWRGNSFDYWGQGTTLTVSS
VL: DIVMTQSPSSLTVTAGEKVTMSCKSSQSLLNSGNQKNYLTWYQQKPGQPPKLLIYWASTRESGVPDRFTGSGSGTDFTLTISSVQAEDLAVYYCQNDYSYPFTFGSGTKLEIKR
modifications: In the in vivo imaging of Example 14 the antibody carried a Dyelight 680 label, site not given; unlabelled in the flow cytometry.
B1 was tested, and the “IMAB362-mediated ADCC on NUGC-4 cells, EC50 on chemotherapy-pretreated versus untreated target cells” value was ~0.33 fraction of the EC50 on untreated cells.
